# Laboratory results: patent US20180057595A1 (CELLDEX THERAPEUTICS, published 2018)
# Columns and labels:
# [1] = target: MET without the 47 amino acids encoded by exon 14 (H596 cells) (human) (UniProt P08581); experiment: cell-based or functional assay
# [2] = target: human MET, cell-surface expressed (human, UniProt P08581 25-1390); experiment: cell-based or functional assay
# dog MET on MDCK cells = target: T1, dog MET on MDCK cells (dog, UniProt Q75ZY9 25-1382); experiment: FACS, serial dilutions of Alexa647-labelled antibody on MDCK cells
# T1 construct: whole, on cells; also called Canine (MDCK)
# Method: (§1) To measure antibody binding affinities against cell surface receptor, antibodies were labeled with the Alexa647 antibody labeling kit and purified per manufacturer's instruction (Invitrogen). A549 (human), 4MBr5 (monkey), MDCK (canine), and MS1 (murine) cells were resuspended in pre-chilled FACS buffer, incubated on ice for 1 hr and distributed to 96-well plates at 10⁵ cell/well. Serial dilutions of labeled antibodies were added to each well and incubated on ice for 4 hrs to allow antibody binding to reach equilibrium. Mean fluorescence intensity was analyzed using a FACS reader (ACCURI™-C6; BD Biosciences), and apparent binding affinities were determined using […] PRISM® software.
# hMET Q328H/R331K/S336N = target: T2, hMET Q328H/R331K/S336N (human, UniProt P08581 25-1390); experiment: flow cytometry on transfected CHO cells (ND = not detectable)
# T2 construct: whole, on cells; also called human to canine
# Method: (§2) This surface-exposed cluster in the human MET (hMET) protein was replaced with corresponding amino acids from canine or murine MET. hMET mutants were then transfected into CHO cells and antibody binding affinity was measured by flow cytometry.
# hMET R331K/S336N = target: T3, hMET R331K/S336N (human, UniProt P08581 25-1390); experiment: as above
# T3 construct: whole, on cells; also called human to canine
# Method: as §2
# hMET R331K/L337P = target: T4, hMET R331K/L337P (human, UniProt P08581 25-1390); experiment: as above
# T4 construct: whole, on cells; also called human to murine
# Method: as §2
# [3] = target: T5, hMET Q328N/R331K/L337P/N338S (human, UniProt P08581 25-1390); experiment: as above
# T5 construct: whole, on cells; also called human to murine
# Method: as §2
# mouse MET on MS1 cells = target: T6, mouse MET on MS1 cells (mouse, UniProt P16056 25-1379); experiment: FACS, serial dilutions of Alexa647-labelled antibody on MS1 cells
# T6 construct: whole, on cells; also called Murine (MS1)
# Method: as §1
# murine MET-ECD = target: T7, murine MET-ECD (murine, UniProt P16056 25-931); experiment: ELISA on coated murine MET-ECD
# T7 construct: extracellular domain; also called mouse cMET ECD
# Method: To measure antibody binding by ELISA, 10 μg of human, murine or chimeric MET-ECD was coated onto 96-well plates (Costar). Serial dilutions of antibodies were added to the plates and incubated at room temperature for 1 hr prior to the addition of HRP-conjugated secondary antibody. Luminescence was measured with BioTek SYNERGY™ HT plate reader, and binding EC₅₀ values were determined using […] PRISM® software.
# T1 sequence (Q75ZY9 25-1382): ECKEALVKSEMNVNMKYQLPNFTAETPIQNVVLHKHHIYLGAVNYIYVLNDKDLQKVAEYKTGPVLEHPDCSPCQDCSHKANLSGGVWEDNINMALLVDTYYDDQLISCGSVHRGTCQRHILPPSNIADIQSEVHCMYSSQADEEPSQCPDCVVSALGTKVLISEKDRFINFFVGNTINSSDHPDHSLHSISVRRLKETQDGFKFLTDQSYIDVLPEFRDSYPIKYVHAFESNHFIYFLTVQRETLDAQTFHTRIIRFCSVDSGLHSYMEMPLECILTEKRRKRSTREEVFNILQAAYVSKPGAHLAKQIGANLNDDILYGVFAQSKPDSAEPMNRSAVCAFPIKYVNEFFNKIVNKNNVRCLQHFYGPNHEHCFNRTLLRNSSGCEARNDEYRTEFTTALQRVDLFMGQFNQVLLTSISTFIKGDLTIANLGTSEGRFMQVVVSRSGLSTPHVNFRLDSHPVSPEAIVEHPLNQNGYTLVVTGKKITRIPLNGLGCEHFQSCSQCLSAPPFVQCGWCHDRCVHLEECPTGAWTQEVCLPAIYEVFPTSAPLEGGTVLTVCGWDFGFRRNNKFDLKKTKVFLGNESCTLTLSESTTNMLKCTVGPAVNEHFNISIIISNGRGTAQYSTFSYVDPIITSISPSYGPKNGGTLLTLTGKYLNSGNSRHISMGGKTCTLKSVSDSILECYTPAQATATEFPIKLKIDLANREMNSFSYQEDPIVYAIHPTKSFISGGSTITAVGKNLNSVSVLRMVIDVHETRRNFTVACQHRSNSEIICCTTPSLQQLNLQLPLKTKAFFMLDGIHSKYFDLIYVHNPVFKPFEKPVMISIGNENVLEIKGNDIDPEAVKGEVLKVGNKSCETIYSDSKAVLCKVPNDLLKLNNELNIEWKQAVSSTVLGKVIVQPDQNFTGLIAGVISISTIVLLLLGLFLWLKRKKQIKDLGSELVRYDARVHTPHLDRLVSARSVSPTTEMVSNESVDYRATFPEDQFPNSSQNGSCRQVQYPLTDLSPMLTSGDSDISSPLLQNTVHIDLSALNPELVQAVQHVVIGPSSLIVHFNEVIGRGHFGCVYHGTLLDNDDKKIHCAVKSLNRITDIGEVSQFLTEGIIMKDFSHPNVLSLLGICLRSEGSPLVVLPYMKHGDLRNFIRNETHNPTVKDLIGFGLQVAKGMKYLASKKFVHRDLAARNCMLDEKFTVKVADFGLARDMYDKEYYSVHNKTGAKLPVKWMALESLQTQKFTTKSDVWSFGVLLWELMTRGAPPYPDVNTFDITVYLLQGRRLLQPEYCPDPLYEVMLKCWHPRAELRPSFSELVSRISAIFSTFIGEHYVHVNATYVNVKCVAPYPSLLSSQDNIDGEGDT
# T7 sequence (P16056 25-931): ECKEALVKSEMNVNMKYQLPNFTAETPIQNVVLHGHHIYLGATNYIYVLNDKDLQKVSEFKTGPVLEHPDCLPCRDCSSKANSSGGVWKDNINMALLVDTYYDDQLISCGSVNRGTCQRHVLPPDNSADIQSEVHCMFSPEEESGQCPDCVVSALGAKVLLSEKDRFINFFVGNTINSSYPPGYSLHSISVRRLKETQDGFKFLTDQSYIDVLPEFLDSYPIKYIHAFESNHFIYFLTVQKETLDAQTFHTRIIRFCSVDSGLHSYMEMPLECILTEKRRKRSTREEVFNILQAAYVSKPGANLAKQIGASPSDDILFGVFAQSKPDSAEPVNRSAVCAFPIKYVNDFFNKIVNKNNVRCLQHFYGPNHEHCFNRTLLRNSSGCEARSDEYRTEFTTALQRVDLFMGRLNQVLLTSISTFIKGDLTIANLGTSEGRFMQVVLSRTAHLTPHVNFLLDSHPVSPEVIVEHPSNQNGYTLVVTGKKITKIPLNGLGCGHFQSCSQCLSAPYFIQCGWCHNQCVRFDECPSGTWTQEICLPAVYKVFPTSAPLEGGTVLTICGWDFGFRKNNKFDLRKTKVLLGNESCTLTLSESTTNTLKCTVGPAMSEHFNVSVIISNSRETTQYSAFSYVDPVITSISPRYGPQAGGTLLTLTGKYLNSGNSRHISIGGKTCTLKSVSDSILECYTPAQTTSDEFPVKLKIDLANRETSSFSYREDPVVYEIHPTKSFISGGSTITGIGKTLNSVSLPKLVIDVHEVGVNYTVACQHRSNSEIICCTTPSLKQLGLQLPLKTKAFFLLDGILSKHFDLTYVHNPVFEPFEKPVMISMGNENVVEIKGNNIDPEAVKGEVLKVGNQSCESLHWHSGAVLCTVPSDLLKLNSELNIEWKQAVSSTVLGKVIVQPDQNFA
# T6 sequence (P16056 25-1379): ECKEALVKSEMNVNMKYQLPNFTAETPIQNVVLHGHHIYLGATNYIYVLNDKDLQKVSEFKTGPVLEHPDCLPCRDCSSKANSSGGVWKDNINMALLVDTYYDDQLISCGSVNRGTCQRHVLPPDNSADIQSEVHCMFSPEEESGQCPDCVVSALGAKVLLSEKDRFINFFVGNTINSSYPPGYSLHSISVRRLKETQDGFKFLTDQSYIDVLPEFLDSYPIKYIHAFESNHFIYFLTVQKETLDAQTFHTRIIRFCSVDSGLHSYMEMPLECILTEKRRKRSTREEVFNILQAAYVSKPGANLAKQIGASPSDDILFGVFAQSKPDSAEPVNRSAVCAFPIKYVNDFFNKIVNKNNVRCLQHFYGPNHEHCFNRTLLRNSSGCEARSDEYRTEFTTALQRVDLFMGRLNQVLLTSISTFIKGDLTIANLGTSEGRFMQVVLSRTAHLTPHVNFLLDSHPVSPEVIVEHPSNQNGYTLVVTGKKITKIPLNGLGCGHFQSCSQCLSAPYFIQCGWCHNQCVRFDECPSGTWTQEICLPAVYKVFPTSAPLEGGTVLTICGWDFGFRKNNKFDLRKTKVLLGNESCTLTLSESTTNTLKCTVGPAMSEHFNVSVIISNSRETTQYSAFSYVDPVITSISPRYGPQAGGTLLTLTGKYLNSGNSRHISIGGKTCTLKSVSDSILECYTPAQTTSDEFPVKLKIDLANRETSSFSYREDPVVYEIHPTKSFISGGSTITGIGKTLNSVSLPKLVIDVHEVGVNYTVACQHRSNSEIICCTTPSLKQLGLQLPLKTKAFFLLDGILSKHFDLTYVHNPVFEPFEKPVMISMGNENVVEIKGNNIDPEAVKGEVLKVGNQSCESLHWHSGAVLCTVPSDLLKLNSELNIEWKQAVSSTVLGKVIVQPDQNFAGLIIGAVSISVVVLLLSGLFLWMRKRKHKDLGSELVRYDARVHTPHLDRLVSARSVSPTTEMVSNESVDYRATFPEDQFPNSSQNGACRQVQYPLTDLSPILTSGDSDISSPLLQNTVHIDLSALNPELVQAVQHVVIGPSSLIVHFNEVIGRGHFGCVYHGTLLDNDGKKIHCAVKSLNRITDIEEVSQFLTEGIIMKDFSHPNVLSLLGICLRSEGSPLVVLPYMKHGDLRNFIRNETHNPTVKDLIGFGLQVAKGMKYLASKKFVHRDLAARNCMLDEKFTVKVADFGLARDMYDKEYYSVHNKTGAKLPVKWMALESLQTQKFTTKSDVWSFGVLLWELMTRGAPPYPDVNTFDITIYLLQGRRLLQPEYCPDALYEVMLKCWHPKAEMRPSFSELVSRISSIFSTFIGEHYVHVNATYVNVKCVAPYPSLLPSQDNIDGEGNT
maximal percent induction of MET degradation in SNU-5 cells [2],percent inhibition of MET phosphorylation in SNU-5 cells [2],binding result (dog MET on MDCK cells),binding result (mouse MET on MS1 cells),binding result (murine MET-ECD),Molecule,other results
,,,,,HGF (from UniProt P14210 32-728) (ligand),"receptor degradation, H596 cells, 1 nM HGF for 24 hrs [1]: 30%; receptor degradation, cell lines expressing wild-type MET such as A549 and U87MG, 1 nM HGF [2]: 80%"
81%,72%,,,,"Ab237C-IgG2 (antibody, V domains shown) VH: EVQLVESGGGLVQPGRSLKLSCAASGFTFSDSYMAWVRQAPTKGLEWVASISSDGGGTYYRDSVKGRFSISRDNAKSSLYLQMDSLRSEDTATYYCTTEGIYTTDYYPYCFNYWGHGVMVTVSA VL: DIQMTQSPGSLSASLGETVTIECLASADIHSNLAWYQQKPGNSPQLLIYYGNNLNDGVPSRFSGSGSGTQYSLKINSLQSEDVSIYFCQQSYDSPPTFGAGTKLEIKR",
,,no binding,no binding,no binding,"Ab237 (antibody, rat IgG2a, V domains shown, Rat IgG2a, kappa) VH: EVQLVESGGGLVQPGRSLKLSCAASGFTFSDSYMAWVRQAPTKGLEWVASISSDGGGTYYRDSVKGRFSISRDNAKSSLYLQMDSLRSEDTATYYCTTEGIYTTDYYPYCFNYWGHGVMVTVSA VL: DIQMTQSPGSLSASLGETVTIECLASADIHSNLAWYQQKPGNSPQLLIYYGNNLNDGVPSRFSGSGSGTQYSLKINSLQSEDVSIYFCQQSYDSPPTFGAGTKLEIKR",binding result (hMET Q328H/R331K/S336N): no binding; binding result (hMET R331K/S336N): no binding; binding result (hMET R331K/L337P): no binding; binding result [3]: no binding
36%,33%,,,,"Ab239C (antibody, human IgG1, V domains shown) VH: EVQLVESGGGLVQPGRSLKLSCAASGFSFTDCYMAWVRQAPTKGLEWVASISSDGGGTYYRDSVKGRFTISRDNARSSLYLEMDSLRSEDTATYYCTTERYYDGTYYGYWYFDFWGPGTMVTVSA VL: GQFTLTQPKSVSGSLRSTITIPCVRSSGDIGDRYVSWYQQRLGRPPLNVIYAADQRPSEVSDRFSGSIDSSSNSASLTITDLQMDDEADYFCQSYDSNIDIVFGGGTKLEIKR",
75%,75%,,,,"Ab239C-IgG2 (antibody, V domains shown) VH: EVQLVESGGGLVQPGRSLKLSCAASGFSFTDCYMAWVRQAPTKGLEWVASISSDGGGTYYRDSVKGRFTISRDNARSSLYLEMDSLRSEDTATYYCTTERYYDGTYYGYWYFDFWGPGTMVTVSA VL: GQFTLTQPKSVSGSLRSTITIPCVRSSGDIGDRYVSWYQQRLGRPPLNVIYAADQRPSEVSDRFSGSIDSSSNSASLTITDLQMDDEADYFCQSYDSNIDIVFGGGTKLEIKR",
,,no binding,no binding,no binding,"Ab239 (antibody, rat IgG2a, V domains shown, Rat IgG2a, lambda) VH: EVQLVESGGGLVQPGRSLKLSCAASGFSFTDCYMAWVRQAPTKGLEWVASISSDGGGTYYRDSVKGRFTISRDNARSSLYLEMDSLRSEDTATYYCTTERYYDGTYYGYWYFDFWGPGTMVTVSA VL: GQFTLTQPKSVSGSLRSTITIPCVRSSGDIGDRYVSWYQQRLGRPPLNVIYAADQRPSEVSDRFSGSIDSSSNSASLTITDLQMDDEADYFCQSYDSNIDIVFGGGTKLEIKR",
39%,19%,,,,"Ab238C (antibody, human IgG1, V domains shown) VH: QVTLKESGPGILQPSQTLSLTCTFSGFSLSTYGMGVAWIRQPSGKDLEWLANIWWDDVNYSNPSLKNRLTISKDTSNNQVFLQITNVDTAETATYYCARIGTSHIVDAWGQGASVTVSA VL: DIRMTQSPASLSASLGETVNIECLASEDIYSDLAWYQQKPGKSPQLLIYNANTLQNGVPSVFSGSGSGTQYSLKINNLHSEDVATYFCQQYNNYPPTFGGGTKLEIKR",
,,no binding,no binding,no binding,"Ab238 (antibody, rat IgG2a, V domains shown, Rat IgG2a, kappa) VH: QVTLKESGPGILQPSQTLSLTCTFSGFSLSTYGMGVAWIRQPSGKDLEWLANIWWDDVNYSNPSLKNRLTISKDTSNNQVFLQITNVDTAETATYYCARIGTSHIVDAWGQGASVTVSA VL: DIRMTQSPASLSASLGETVNIECLASEDIYSDLAWYQQKPGKSPQLLIYNANTLQNGVPSVFSGSGSGTQYSLKINNLHSEDVATYFCQQYNNYPPTFGGGTKLEIKR",binding result (hMET Q328H/R331K/S336N): no binding; binding result (hMET R331K/S336N): no binding; binding result (hMET R331K/L337P): no binding; binding result [3]: no binding
35%,24%,,,,"Ab238C-IgG2 (antibody, V domains shown) VH: QVTLKESGPGILQPSQTLSLTCTFSGFSLSTYGMGVAWIRQPSGKDLEWLANIWWDDVNYSNPSLKNRLTISKDTSNNQVFLQITNVDTAETATYYCARIGTSHIVDAWGQGASVTVSA VL: DIRMTQSPASLSASLGETVNIECLASEDIYSDLAWYQQKPGKSPQLLIYNANTLQNGVPSVFSGSGSGTQYSLKINNLHSEDVATYFCQQYNNYPPTFGGGTKLEIKR",
6%,10%,,,,"Ab235C (antibody, human IgG1, V domains shown) VH: QVQLQQSGAELMKPGASVKISCKATGYTFSNYWIEWVKQRPGHGLEWIGEILPGSDYTKYNEKFKGKATFTADTSSNTAYMQLSSLTSEDSAVYYCARPSTIPPDCWGQGTTLTVSA VL: QIVLTQSPAIMSTSPGEKVTMTCSASSSVNYMFWYQQKAGSSPRLLIYDTFNLASGVPVRFSGSGSGTSYSLTISRMEAEDAATYYCQQWSIYPYTFGGGTKLEIKR",
69%,75%,,,,"Ab236C-IgG2 (antibody, V domains shown) VH: QAQLQQSGAELMKPGASVKISCKATGYIFSSYWIEWVKQRPGHGLEWIGEILPGSDFIKYSEKFKGKATFTADTSSNTAYMQLSNLTSEDSAVYYCARPSTVPPDCWGQGTTLTVSA VL: QIVLTQSPAIMSASPGEKVTMTCSASSSVSYMFWYQQKPGSSPRLLIYDTSDLASGVPVRFSGSGSGTSYSLTISRMEAEDAATYYCQQWSNYPYTFGGGTKLEIKR",
64%,64%,,,,"Ab235C-IgG2 (antibody, V domains shown) VH: QVQLQQSGAELMKPGASVKISCKATGYTFSNYWIEWVKQRPGHGLEWIGEILPGSDYTKYNEKFKGKATFTADTSSNTAYMQLSSLTSEDSAVYYCARPSTIPPDCWGQGTTLTVSA VL: QIVLTQSPAIMSTSPGEKVTMTCSASSSVNYMFWYQQKAGSSPRLLIYDTFNLASGVPVRFSGSGSGTSYSLTISRMEAEDAATYYCQQWSIYPYTFGGGTKLEIKR",
19%,17%,,,,"Ab236C (antibody, human IgG1, V domains shown) VH: QAQLQQSGAELMKPGASVKISCKATGYIFSSYWIEWVKQRPGHGLEWIGEILPGSDFIKYSEKFKGKATFTADTSSNTAYMQLSNLTSEDSAVYYCARPSTVPPDCWGQGTTLTVSA VL: QIVLTQSPAIMSASPGEKVTMTCSASSSVSYMFWYQQKPGSSPRLLIYDTSDLASGVPVRFSGSGSGTSYSLTISRMEAEDAATYYCQQWSNYPYTFGGGTKLEIKR",
,,no binding,no binding,no binding,"Ab236 (antibody, mouse IgG1, V domains shown, Mouse IgG1, kappa) VH: QAQLQQSGAELMKPGASVKISCKATGYIFSSYWIEWVKQRPGHGLEWIGEILPGSDFIKYSEKFKGKATFTADTSSNTAYMQLSNLTSEDSAVYYCARPSTVPPDCWGQGTTLTVSA VL: QIVLTQSPAIMSASPGEKVTMTCSASSSVSYMFWYQQKPGSSPRLLIYDTSDLASGVPVRFSGSGSGTSYSLTISRMEAEDAATYYCQQWSNYPYTFGGGTKLEIKR",
,,no binding,no binding,no binding,"Ab235 (antibody, mouse IgG1, V domains shown, Mouse IgG1, kappa) VH: QVQLQQSGAELMKPGASVKISCKATGYTFSNYWIEWVKQRPGHGLEWIGEILPGSDYTKYNEKFKGKATFTADTSSNTAYMQLSSLTSEDSAVYYCARPSTIPPDCWGQGTTLTVSA VL: QIVLTQSPAIMSTSPGEKVTMTCSASSSVNYMFWYQQKAGSSPRLLIYDTFNLASGVPVRFSGSGSGTSYSLTISRMEAEDAATYYCQQWSIYPYTFGGGTKLEIKR",
